Measured values reported in publication PMC13108567 (2026).
One block for each binder: values may come before it.

How the values were obtained:
PD-1 biotinylated dimer = PD-1 biotinylated dimer (human, UniProt Q15116 25-288, biotin); assay: BLI
[1] = molecular target: human programmed cell death protein 1 on PD-1 hi transgenic Jurkat cells (human, UniProt Q15116 25-288); assay: FACS
Chain of human programmed cell death protein 1 on PD-1 hi transgenic Jurkat cells (Q15116 25-288): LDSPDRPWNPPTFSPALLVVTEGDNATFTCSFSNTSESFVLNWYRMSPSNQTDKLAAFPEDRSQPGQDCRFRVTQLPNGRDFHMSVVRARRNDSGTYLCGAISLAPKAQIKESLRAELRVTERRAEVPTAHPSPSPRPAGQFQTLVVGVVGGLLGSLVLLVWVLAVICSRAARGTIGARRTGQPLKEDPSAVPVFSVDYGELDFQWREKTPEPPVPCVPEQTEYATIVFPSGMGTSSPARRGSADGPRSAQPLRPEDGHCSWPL

Chain of PD-1 biotinylated dimer (Q15116 25-170): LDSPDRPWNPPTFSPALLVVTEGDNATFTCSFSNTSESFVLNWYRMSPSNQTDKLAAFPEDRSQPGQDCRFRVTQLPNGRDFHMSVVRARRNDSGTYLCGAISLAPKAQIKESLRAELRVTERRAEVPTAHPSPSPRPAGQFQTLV

- Kd (PD-1 biotinylated dimer): 16 nM
B1: Fab of anti-PD-1 clone 135c139d6 (Fab, V domains shown)
VH: EVQLVQSGAEVKKPGESLKISCKGSGYSFTNFYIHWVRQAPGQRLEWMGSIYPNYGDTAYNQKFKDRFVFSLDTSVSTAYLQISSLKAEDTAVYYCARGYSYAMDYWGQGTTVTVSS
VL: DIQMTQSPSSVSASVGDRVTITCSASQGISGDLNWYQQKPGKAPKLLIYHTSSLHSGVPSRFSGSGSGTDFTLTISSLQPEDFATYYCQYYSKDLLTFGGGTKLEIK
- EC50 [1]: 42 nM

- Kd (PD-1 biotinylated dimer): 10 nM
B2: scFv-His of anti-PD-1 clone 135c139d6 (scFv, V domains shown)
VH: B1 VH
VL: B1 VL
- EC50 [1]: 162 nM
